Measurements as given in PMC2248580.

Target: human activated blood coagulation factor X (FXa) (human)
Test: SPR; […]; 37°C; HBS (10 mM Hepes, 150 mM NaCl, 5 mM CaCl2, 0.005% P20, pH 7.4); Langmuir fit; […]

Row | Substance | Kd [µM] | koff [s⁻¹] | kon [M⁻¹ s⁻¹]
1 | bAhp, the basic PLA2 from Gloydious (Agkistrodon) halys pallas venom (from UniProt O42187 17-138) (enzyme) | 0.4 | 0.016 | 40000
2 | CbII, the basic subunit of the CbI-CbII complex (β-neurotoxin) from Pseudocerastes fieldi venom (enzyme) | 0.02 | 0.0085 | 420000
